Experimental data published in the nanobody polyreactivity screen of Harvey et al. (2022).

experiment: yeast display, Sf9 membrane polyspecificity reagent, FACS + sequencing; frameworks hold sequencing errors
Summary of the method: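 Nanobodies came from a synthetic yeast display library in Saccharomyces cerevisiae BJ5465, induced with galactose for 36–48 hours and stained for 1 hour at 4 °C with 10% biotinylated, detergent-solubilized Sf9 membrane reagent. Cells were enriched on streptavidin microbeads and then FACS-sorted, with low and high (top ~1%) gates set on anti-HA fluorescence for expression and streptavidin fluorescence for reagent binding. Each polyreactivity label reflects the gate a clone came from. Genes were amplified by colony PCR, sequenced by MiSeq 2 × 250 and filtered by CDR length.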

Sequence | polyreactivity (PSR sort gate)
QVQLVESGGGLVQAGGSLRLSCAASVSTIGYYAMGWYRQAPGKEWELVAAITWSGDSTYADSVKGRFTISRDNAKNTVYLQMNRLKPEDTAVYYCARRGFLGHWPRPSYDYWGQGTQVTVSS | low polyreactivity
QVQLVESGGGLVQAGGSLRLSCAASVYIFVPYTLGWYRQAPGKERELVAAITRSGGSTYYADSVKGRFTISRDNAKNTVSLQMNSLKPEDTAVYYCATVGGPRWVRAQYDYWGQGTQVTVSS | high polyreactivity
QVQLVESGGGLVQAGGSLRLSCAASVYTFSKNTMGWYRQAPGKEREFVAAINWSGGSTYYADSVKGRFTISRDNAKNTVYLQMNSLKPEDTAVYYFAARRGGRRGYDYWGQGTQVTVSS | high polyreactivity
QVQLVESGGGLVQAGGSLRLSCAATGFIFPYYAMGLYRQAPGKEREMVAAITFSATRTYYADSVKGRFTISRDNAKNTVYLQMNSLKPEDTAVYYCNARGGVYGSYFEFNYWGQGTQVTVSS | low polyreactivity
QVQLVESGGGLVQAGGSLRLSCAATGFRFVHTAIGWYRKAPGKERELVAAIRSRGGSTYYADSVKGRFTISRDNAKNTVYLQMKSLKPEDTAVYYCAADGAVDSSSRKFGYWGQGTQVNVSS | low polyreactivity
QVQLVESGGGLVQAGGSLRLSCAATGFTFGWNDMGWYRQARGKEMELVAAISGGGGSTYYADSVKGRFTISRDNAKNTVYLQMNSLKPEDTAVYYCATDSGTLIVKYDYWGQGTQVTVSS | low polyreactivity
QVQLVESGGGLVQAGGSLRLSCAATGFTFRYNAMGWYRQAPGKERELGAAISIGGTTNYADSVKGRFTISRDNAKNTVYLQMNSLKPEDTAVYYCNALGTYFRRYDYWGQGTQVTVSS | low polyreactivity
QVQLVESGGGLVQAGGSLRLSCAATGFTFSLYGMGWYRQAPGKERELVAAIRSGGSTNYADSVKGRFTISRDNAKNTVYLQMNSLKPVDTAVYYCATDIHSVHNNRDKHDYDYWGQGTQVTVSS | low polyreactivity
QVQLVESGGGLVQAGGSLRLSCAATGFTFSYYALGWYRQAPGKERELVAVISDRGGITYYADSVKGRFTISRDNAKNTVYLQMNSLKPEDTADYYCAAQNPRYNYRYYYWGHGTQVTVSS | low polyreactivity
QVQLVESGGGLVQAGGSLRLSCAATGLTIWHYVMGWYRQAPGKERELVATISSSGGSTFYADSVKGRFTISRDNAKNTVYLQMNSLKPEDTAVYYCNADQYSWRWRRKHDYWGQGTQVTVSS | high polyreactivity
QVQLVESGGGLVQAGGSLRLSCAATGRIFGRNAMGWYRQAPGKERELVAAINSGVSTYYADSVKGRFTISRDNAKNTVYLQMNSLKPQDTAVYYCANAPPRRYYDFDYWGQGTQVTVSS | low polyreactivity
QVQLVESGGGLVQAGGSLRLSCAATGRIVTSNAMGWYRQAPGKERELVAVISRRGGSTYYADSVKGRFTISRDNAKNTVYLQMNRLKPEETAVYYCARRPYSYTRYEYWGQGTQVTVSS | low polyreactivity
QVQLVESGGGLVQAGGSLRLSCAATGRTFQDNAMGWYRQAPGKERELVAAISWRGGSTNYADSVKGRFTISRDNAKNTVYLQMNSLKPEDTAVYYCNRDPRKYGKLDYWGQGTQVTVSS | low polyreactivity
QVQLVESGGGLVQAGGSLRLSCAATGRTFQFNAMGRYRQAPGKERELVAAITSNGGSTNYADSVKGRFTISRDNAKNTVYVQMNSLKPEDTAVYYSAAPRFRYYYWDMDYWGQGTQVTVSS | low polyreactivity
QVQLVESGGGLVQAGGSLRLSCAATGSIFDLNSMGWYRQAPGKEREVVAAISSGGGTYYADSVKGRFTISRDNANNTVFLQMNSLKPEDTAVYYCIRVTYRSRGRDYWGQGNQVTVSS | high polyreactivity
QVQLVESGGGLVQAGGSLRLSCAATGSIFLYYAMGWYRQAPGKERELVAGINRVGSTNYADSVKGRFTISRDNAKNTVYLELNSLKPEDTAVYYCAAKYRNRYDYWGQGTQATVSS | low polyreactivity
QVQLVESGGGLVQAGGSLRLSCAATGSIFQSYAMGRYRQAPGKERELVAGISSGGSTNYADSVKGRFTISRDNAMNTDYLQMNSLKPEDTAVYYCATGGFAGASFAYEYYYWGQGTQVTVSS | low polyreactivity
QVQLVESGGGLVQAGGSLRLSCAATGSIFRWNTMGWYRPAPGKERELVAVITWSGDSTYYADSVKGRFTISRDNAKNTVYLQMNSLKPEDTAVYYCAVDVVTSYYELTGSFNYWGQGTQVTVSS | low polyreactivity
QVQLVESGGGLVQAGGSLRLSCAATGSIFRYNTMGWYRQAPGKERELVATITRRGGSTYYADSVKGRITISRDNAKNTVYLQMNSLKPVDTAVYYCNDDNFGGPYNYWGQGTQVTVSS | low polyreactivity
QVQLVESGGGLVQAGGSLRLSCAATGSIFYNYAMGWYRQAPGKERELVAAINRSGGITFYADSVKGRFTISRDNAKNTVYLQMNSLKPEDTAVYYCAAEEVPYDRDMDYWGQGTQVTVSS | low polyreactivity
QVQLVESGGGLVQAGGSLRLSCAATGSILNYYAMGWYRQAPGKERELVATISSGGNTHYADSVKGRFTISRDNAKNTVYLQMNSLKPEDTAVYYSAAVASKHWGRDYWGQGTQVTVSS | low polyreactivity

Sequence | polyreactivity (PSR sort gate)
QVQLVESGGGLVQAGGSLRLSCAATGSPFILYALGWYRQAPGKERALVAAITTSGGSTYYADSVKGRFTISRDNAKNTVYLQMNSLKPEDTAVYYCNADWGWRYSSDFDYWGQGTQVTVSS | low polyreactivity
QVQLVESGGGLVQAGGSLRLSCAATGSTVDFYAMGWNRQAPRKERELVAAISWSAGSTYYADSVKGRFTISRDNAKNTVYLQMNSLKPEDTAVYYCNADYWGQGTQVTVSS | low polyreactivity
QVQLVESGGGLVQAGGSLRLSCAATVSTFWNYAMGWYRQAPGKERELVAAITRGSSTNYADSVKGRFRISRDNAKNTVYLQMNSLKPEVTAVYYCAKRVGRWSAFYYWGQGTQVTVSS | high polyreactivity
QVQLVESGGGLVQAGGSLRLSCAAYGFFYNAMGWYRPAPGKERELVAAISWSGASTYYADSVKGRFTISRDNAKNTVYLQMNSLKPEDTAVFYCNADPRLRQTRDYWGQGTQVSVSS | high polyreactivity
QVQLVESGGGLVQAGGSLRLSCAAYGFIFGGNAMGWYRQAPGKERELVAAITARSGSTYYADSVKGRFTISRDNAKNTVYLQMNSLKPEDTAVYYCATPVYRSTYEYDYWGQGTQVTVSS | low polyreactivity
QVQLVESGGGLVQAGGSLRLSCAAYGFIFSYYAMGWFRQAPGKEREFVATITWRGGSTYYADSVKGRFTISRDNAKNTVYLQMNSLKPEDTAVYYCAARKRTPGYGYWGQGTQVTVSS | high polyreactivity
QVQLVESGGGLVQAGGSLRLSCAAYGFIFSYYTMGWYRQAPGKERELVAAISYSGGSTYYADSVKGRFTISRDNAKNNVYLQMNSLKPEDTAVYYCTAVAAATYDYWGQGTQVTVSS | high polyreactivity
QVQLVESGGGLVQAGGSLRLSCAAYGFIIARNAMGWYRQAPGKERELVAAISAAGGRTYYADSVKGRFTISRDNAKITVYFQMNSLKPEDTAVYYCAARRDGRCGSYNYWGQGTQVTVSS | high polyreactivity
QVQLVESGGGLVQAGGSLRLSCAAYGITFPSYVMGWYRQAPGKERELVAAISWRGGSTYYADSVKGRFTISRDNAKNTVYLQMNSLKPEDTAVYYCAAEYLVWYTFYPKYDYWGQGTQVTVSS | high polyreactivity
QVQLVESGGGLVQAGGSLRLSCAAYGITFYLYAMGWYIQAPGKERELVAAITSSGGSTYYADSVKGRFTISRDNAKNTVYFQMNSLKPEDTAVYYCNALYFSQDRYDYWGQGTQVTVSS | high polyreactivity
QVQLVESGGGLVQAGGSLRLSCAAYGLTFYGYGMGWYRQAPGKERELVASITSGGNTYYADSVKGRFTISRDNAKNTVYLQMNSLKPEDTAVYYCAVTAIALYYSSGYYWGQGTQVTVSS | low polyreactivity
QVQLVESGGGLVQAGGSLRLSCAAYGNTFYPYTMGWYRQAPGKERELVADITYIGGDTYYADSVKGRFTISRDNAKNTVYLQMNSLKPEDTAVYYCNKDGGYFETYHTYTLDDYWGQGTQVTVSS | low polyreactivity
QVQLVESGGGLVQAGGSLRLSCAAYGRIFKYYVMGWYRPAPGKERELVATISSGSGTNYADSVKGRFTISRDNAKNTVYLQMNSLKPEDTAVYYCAARWTPRVRGYNYWGQGTLVTVSS | high polyreactivity
QVQLVESGGGLVQAGGSLRLSCAAYGRIFSTYAMGWYRQAPGKERELVAAINSIGGRTYYADSVKGRFTISRDNAKNTVYLQMNSLKPEDTAVYYCAAGYRTRRGLGYYYWGQGTQVTVSS | high polyreactivity
QVQLVESGGGLVQAGGSLRLSCAAYGRISYYYAMGWYRQAPGKERELVAAITYSTGSTYYADSVKGRFTISRDNAKNTVYLQMNSLKPEDSAVYYCAARYWRWLFPFDYWGQGTKVTVSS | high polyreactivity
QVQLVESGGGLVQAGGSLRLSCAAYGRTFASYALGWYRQAPGKEREFVAVISVNGGNTYYADSVKGRFTISRDNAKNTVYLQMNSLKPEDTAVYYCARFDGWYQGYYPLYEFDYWGQGTQVTVSS | high polyreactivity
QVQLVESGGGLVQAGGSLRLSCAAYGRTFDTYAMGWYLQAPGKERELVAAISFSGASTYYADSVKGRFTISRDNAKNTVYLQLNSLKPEDTAVYYCNARYGYRVPLTPIGARFNYWGQGTQETVSS | high polyreactivity
QVQLVESGGGLVQAGGSLRLSCAAYGRTFFWNAMGLYRKAPGTETELVAAITWSGGSTYYADSVKGRFTISRDNAKITVYLQMNSLKPEDTAVYYCASVVSDYVWRYEYWGQGTQVTVSS | low polyreactivity
QVQLVESGGGLVQAGGSLRLSCAAYGRTFNDYAMGWYRQAPGKERELVAAIDSDGDTNYADSVKGRFTISRDNAKNTVYLQMNSLKPEDTAVFYCNAVRLVVQEWYYYFTFDYWGQGTQVTVSS | low polyreactivity
QVQLVESGGGLVQAGGSLRLSCAAYGRTIRYYSMGRYRQAPAKERELVATISRRSGNTYYADSVKGRFTLSRDNAKNTVYLKMNSLKPEDTAVYYCAVRYFGLYNYDYWGQGTQVTVSS | high polyreactivity
